Experimental data from US20220348650A1.

Target: hTIGIT on the surface of T cells of B-hPD-1/hTIGIT double humanized mice (human extracellular region in the mouse genome (C57BL/6)) (UniProt Q495A1)
Assay: flow cytometry on spleen cells of a B-hPD-1/hTIGIT mouse, secondary anti-human Fc FITC; Q3 (TCRβ positive, stain negative) 30.3%

hTIGIT on the surface of T cells of B-hPD-1/hTIGIT double humanized mice (human extracellular region in the mouse genome (C57BL/6)), sequence (Q495A1 22-141 limits assumed): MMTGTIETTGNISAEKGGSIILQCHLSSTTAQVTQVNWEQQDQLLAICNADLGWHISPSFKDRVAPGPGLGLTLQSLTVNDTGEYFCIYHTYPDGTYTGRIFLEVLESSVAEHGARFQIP

With IgG1 isotype control (antibody) the % of events in quadrant Q2 (mouse TCRβ positive and human IgG positive) was 2.61%.
